Laboratory results: patent publication US20090280138A1 (OXFORD BIOMEDICA UK, published 2009)

Tests used:
[1] = biological target: T1, MHC class I molecule A*0301 (biotin (bound to streptavidin-coated plate)); assay: iTopia iScore
T1 construct: also called A3; HLA-A3
Experimental: (§1) The 9 mers were tested for Peptide Binding, Off Rate and Affinity using iTopia Epitope Discovery System in accordance with the manufacturer's instructions. Briefly, 96 well microtitre plates coated with MHC molecules representing different MHC alleles are used to identify candidate peptides. […] Determinations are performed in duplicate using an ELISA plate reader and included allele specific positive controls.
(§2) Finally, multiparametric analysis is performed on the results from these assays and an iScore is generated. The iScore represents a measure of the overall quality of peptide-MHC binding, enabling candidate peptides to be ranked in order of binding quality and allowing rational prioritisation of peptides for functional cellular follow-up studies.

[2] = biological target: T2, MHC class I molecule A*0101 (biotin (bound to streptavidin-coated plate)); assay: iTopia iScore
T2 construct: also called A1; HLA-A1
Experimental: as §1, §2

[3] = biological target: T3, MHC class I molecule B*0702 (biotin (bound to streptavidin-coated plate)); assay: iTopia iScore
T3 construct: also called B7; HLA-B7
Experimental: as §1, §2

[4] = biological target: T4, MHC class I molecule A*0201 (biotin (bound to streptavidin-coated plate)); assay: iTopia iScore
T4 construct: also called A2; HLA-A2
Experimental: as §1, §2

[5] = biological target: T5, MHC class I allele A*0101 monomer (human, biotinylated, bound to streptavidin-coated plate); assay: iTopia, multiparametric iScore
T5 construct: placeholder peptide and b2M removed, then reconstituted with test peptide and fresh b2M; also called A1; HLA-A1
Experimental: as §1, §2

[6] = biological target: T6, MHC class I allele B*0702 monomer (human, biotinylated, bound to streptavidin-coated plate); assay: iTopia, multiparametric iScore
T6 construct: also called B7; HLA-B7
Experimental: as §1, §2

[7] = biological target: T7, MHC class I allele A*0301 monomer (human, biotinylated, bound to streptavidin-coated plate); assay: iTopia, multiparametric iScore
T7 construct: also called A3; HLA-A3
Experimental: as §1, §2

[8] = biological target: T8, MHC class I allele A*0201 monomer (human, biotinylated, bound to streptavidin-coated plate); assay: iTopia, multiparametric iScore
T8 construct: also called A2; HLA-A2
Experimental: as §1, §2

| Binder | iScore [1] | iScore [2] | iScore [3] | iScore [4] | iScore [5] | iScore [6] | iScore [7] | iScore [8] |
| --- | --- | --- | --- | --- | --- | --- | --- | --- |
| PPEDERQNR [5T4 9-mer peptide 93 PPEDERQNR] | 0 | 0 | 0 | 0 |  |  |  |  |
| EDERQNRSF [5T4 9-mer peptide 94 EDERQNRSF] | 0 | 0 | 0 | 0 |  |  |  |  |
| ERQNRSFEG [5T4 9-mer peptide 95 ERQNRSFEG] | 0 | 0 | 0 | 0 |  |  |  |  |
| QNRSFEGMV [5T4 9-mer peptide 96 QNRSFEGMV] | 0 | 0 | 0 | 0.052 |  |  |  |  |
| RSFEGMVVA [5T4 9-mer peptide 97 RSFEGMVVA] | 0 | 0 | 0 | 0.189 |  |  |  |  |
| FEGMVVAAL [5T4 9-mer peptide 98 FEGMVVAAL] | 0 | 0 | 0 | 0.051 |  |  |  |  |
| GMVVAALLA [5T4 9-mer peptide 99 GMVVAALLA] | 0 | 0 | 0 | 0.384 |  |  |  |  |
| VVAALLAGR [5T4 9-mer peptide 100 VVAALLAGR] | 0.125 | 0 | 0 | 0 |  |  |  |  |
| AALLAGRAL [5T4 9-mer peptide 101 AALLAGRAL] | 0 | 0 | 0.238 | 0.156 |  |  |  |  |
| LLAGRALQG [5T4 9-mer peptide 102 LLAGRALQG] | 0 | 0 | 0 | 0.176 |  |  |  |  |
| AGRALQGLR [5T4 9-mer peptide 103 AGRALQGLR] | 0 | 0 | 0 | 0 |  |  |  |  |
| RALQGLRRL [5T4 9-mer peptide 104 RALQGLRRL] | 0.027 | 0 | 0.078 | 0.168 |  |  |  |  |
| LQGLRRLEL [5T4 9-mer peptide 105 LQGLRRLEL] | 0 | 0 | 0.119 | 0.114 |  |  |  |  |
| GLRRLELAS [5T4 9-mer peptide 106 GLRRLELAS] | 0 | 0 | 0 | 0.045 |  |  |  |  |
| RRLELASNH [5T4 9-mer peptide 107 RRLELASNH] | 0 | 0 | 0 | 0 |  |  |  |  |
| LELASNHFL [5T4 9-mer peptide 108 LELASNHFL] | 0 | 0 | 0 | 0.151 |  |  |  |  |
| LASNHFLYL [5T4 9-mer peptide 109 LASNHFLYL] | 0.224 | 0.12 | 0 | 0.337 |  |  |  |  |
| SNHFLYLPR [5T4 9-mer peptide 110 SNHFLYLPR] | 0.084 | 0 | 0 | 0.051 |  |  |  |  |
| HFLYLPRDV [5T4 9-mer peptide 111 HFLYLPRDV] | 0 | 0 | 0 | 0.227 |  |  |  |  |
| LYLPRDVLA [5T4 9-mer peptide 112 LYLPRDVLA] | 0 | 0 | 0 | 0.218 |  |  |  |  |
| LPRDVLAQL [5T4 9-mer peptide 113 LPRDVLAQL] | 0 | 0 | 0.305 | 0 |  |  |  |  |
| RDVLAQLPS [5T4 9-mer peptide 114 RDVLAQLPS] | 0 | 0 | 0 | 0 |  |  |  |  |

| Binder | iScore [1] | iScore [2] | iScore [3] | iScore [4] | iScore [5] | iScore [6] | iScore [7] | iScore [8] |
| --- | --- | --- | --- | --- | --- | --- | --- | --- |
| VLAQLPSLR [5T4 9-mer peptide 115 VLAQLPSLR] | 0.023 | 0 | 0 | 0.113 |  |  |  |  |
| AQLPSLRHL [5T4 9-mer peptide 116 AQLPSLRHL] | 0 | 0 | 0 | 0.162 |  |  |  |  |
| SLRHLDLSN [5T4 9-mer peptide 118 SLRHLDLSN] | 0 | 0 | 0 | 0.03 |  |  |  |  |
| RHLDLSNNS [5T4 9-mer peptide 119 RHLDLSNNS] | 0 | 0 | 0 | 0.029 |  |  |  |  |
| LDLSNNSLV [5T4 9-mer peptide 120] |  |  |  |  | 0 | 0 | 0 | 0.156 |
| LSNNSLVSL [5T4 9-mer peptide 121] |  |  |  |  | 0 | 0.012 | 0 | 0.116 |
| NNSLVSLTY [5T4 9-mer peptide 122] |  |  |  |  | 0 | 0 | 0 | 0 |
| SLVSLTYVS [5T4 9-mer peptide 123] |  |  |  |  | 0 | 0 | 0 | 0.206 |
| VSLTYVSFR [5T4 9-mer peptide 124] |  |  |  |  | 0 | 0 | 0.025 | 0 |
| SFRNLTHLE [5T4 9-mer peptide 127] |  |  |  |  | 0 | 0 | 0 | 0 |
| RNLTHLESL [5T4 9-mer peptide 128] |  |  |  |  | 0 | 0 | 0 | 0.072 |
| LTHLESLHL [5T4 9-mer peptide 129] |  |  |  |  | 0 | 0 | 0 | 0.143 |
| HLESLHLED (also called HLESLHLED) [5T4 9-mer peptide 130] |  |  |  |  | 0 | 0 | 0 | 0 |
| ESLHLEDNA [5T4 9-mer peptide 131] |  |  |  |  | 0 | 0 | 0 | 0 |
| LHLEDNALK [5T4 9-mer peptide 132] |  |  |  |  | 0 | 0 | 0 | 0 |
| LEDNALKVL [5T4 9-mer peptide 133] |  |  |  |  | 0 | 0 | 0 | 0.122 |
| DNALKVLHN [5T4 9-mer peptide 134] |  |  |  |  | 0 | 0 | 0 | 0 |
| ALKVLHNGT [5T4 9-mer peptide 135] |  |  |  |  | 0 | 0 | 0 | 0.104 |
| KVLHNGTLA [5T4 9-mer peptide 136] |  |  |  |  | 0 | 0 | 0 | 0.15 |
| LHNGTLAEL [5T4 9-mer peptide 137] |  |  |  |  | 0 | 0.026 | 0 | 0.187 |
| NGTLAELQG [5T4 9-mer peptide 138] |  |  |  |  | 0 | 0 | 0 | 0 |
